“Also recorded” adds a separate entry of the source.
Assays:
[1] = tested on: STZ-diabetic BN rats; assay: Retinal vascular permeability in STZ-induced diabetic rats; assay type: in vivo, rat; settings: STZ-diabetic BN rats 16 weeks, 3 μg/eye intravitreal, 48 h, vs BSA contralateral eye, P<0.05
Procedure: To investigate if blockade of the wnt pathway reduces the retinal vascular hyper-permeability in diabetes, 3 μg purified DKK1 was intravitreally injected into the right eyes of STZ-diabetic BN rats at 16 weeks following the STZ injection, and the same amount of BSA into the contralateral eyes as control. The vascular permeability was measured at 48 h following the DKK1 injection.
The retinal vascular permeability was measured using Evans blue as a tracer, 48 hr after the injection. Vascular permeability was expressed as % of the permeability in the contralateral control (mean±SD, n=4), P<0.05.
Measurement of vascular permeability: Vascular permeability will be quantified by measuring FITC-BSA leakage from blood vessels into the retina following a method with modifications. The mice anesthetized and FITC-BSA (10 mg/kg body weight) is injected through the femoral vein under microscopic inspection. […] The fluoresce density of fluorescein-albumin from supernatant and serum is measured at excitation wave 485 nm/emission wave 530 nm. Retinal protein levels are measured in the pellet by Bradford assays with quantification at […]. The FITC-BSA levels in the retina are then calculated by the supernatant fluoresce density and normalized to retinal protein levels and normalized to serum FITC levels.

[2] = tested on: HUVEC; assay: DKK1 on VEGF over-expression in HUVEC transfected with VLDLR siRNA; assay type: cell-based; settings: 10 μg/ml human DKK1, 24 hours, ELISA and RT-PCR, vs BSA
Procedure: The regulatory roles of VLDLR and the wnt pathway in VEGF expression in cultured endothelial cells was also investigated.
Vldlr^−/− mice received a subretinal injection of 5 μg purified mouse DKK1 into the right eyes, and the same amount BSA into the left eyes. According to embodiments shown in FIG. 9A, The eyecups were dissected 24 h following the injection for the following analyses, phosphorylated β-catenin and VEGF levels were measured by Western blot analysis of a representative mouse eyecup using the anti-phosphorylated β-catenin and anti-VEGF antibodies, respectively. According to embodiments shown in FIG. 9B, VEGF protein levels in Vldlr^−/− eyecups were measured using ELISA. According to embodiments shown in FIG. 9C, VEGF mRNA levels in the Vldlr^−/− eyecups were measured using quantitative real-time RT-PCR. Values are mean±SD (n=4). According to embodiments shown in FIGS. 9D-9G, Vldlr^−/− mice were injected with 5 μg/eye BSA into the subretinal space of the left eye (FIGS. 9D and 9F) and the same amount of DKK1 into the right eye (FIGS. 9E and 9G). […] VEGF protein was measured in the culture medium by ELISA (FIG. 9H) and the VEGF mRNA measured in the cells by real-time RT-PCR, normalized by 18s RNA and expressed as arbitrary unit (mean±SD, n=3) (FIG. 9I), 24 hours after the addition of DKK1. […]

[3] = tested on: primary RCEC; assay: HIF-1 activation and VEGF expression induced by LiCl in primary RCEC; assay type: cell-based, bovine; settings: 50 mM LiCl plus 85 ng/ml DKK1, 24 hours
Procedure: Blockade of the wnt pathway by DKK1 down-regulates VEGF and HIF-1 expression and reduces vascular leakage in the retina of diabetic rats. To activate the wnt pathway, primary RCEC were treated with 50 mM LiCl, a specific activator of the wnt pathway, in the presence or absence of 85 ng/ml DKK1, a specific inhibitor of the wnt pathway, or BSA for 24 hours. Hypoxia was used as a positive control for HIF-1 activation. The HIF-1 nuclear translocation, a key step in its activation, was measured by immunocytochemistry. Both LiCl and hypoxia increased nuclear levels of HIF-1α, indicating an increased nuclear translocation.
According to embodiments of experimental data, RCEC were exposed to normoxia (FIG. 17A), hypoxia (1% O2) (FIG. 17B), 50 mM LiCl with BSA (FIG. 17C), or 50 mM LiCl plus 85 ng/ml DKK1 (FIG. 17D) for 24 hours. The nuclear translocation of HIF-1α was determined by immunocytochemistry with an antibody against HIF-1α. […] In FIG. 17E, the total levels of VEGF and HIF-1α were determined by western blot analysis with an antibody against HIF-1α or VEGF.

B1: DKK1: Purified Dickkopf-1 protein (R&D System), specific inhibitor of the wnt pathway binding LRP5/6; mouse protein in mice, human in HUVEC (protein, UniProt O54908 32-272; O54908 32-272, looked up)
Dickkopf-related protein 1 1: TLNSVLINSNAIKNLPPPLGGAGGQPGSAVSVAPGVLYEGGNKYQTLDNYQPYPCAEDEECGSDEYCSSPSRGAAGVGGVQICLACRKRRKRCMRHAMCCPGNYCKNGICMPSDHSHFPRGEIEESIIENLGNDHNAAAGDGYPRRTTLTSKIYHTKGQEGSVCLRSSDCAAGLCCARHFWSKICKPVLKEGQVCTKHKRKGSHGLEIFQRCYCGEGLACRIQKDHHQASNSSRLHTCQRH
Dickkopf-related protein 1 2: B1 Dickkopf-related protein 1 1
modifications: mouse protein in mice, human in HUVEC
- retinal vascular permeability [1]: significantly reduced retinal vascular permeability
- VEGF over-expression induced by the VLDLR siRNA [2]: blocked the VEGF over-expression
- HIF-1 nuclear translocation induced by LiCl ([3]; immunocytochemistry): inhibited the HIF-1 nuclear translocation; also recorded: blocked
- HIF-1α over-expression induced by activation of the wnt pathway ([3]; western blot): blocked
- VEGF over-expression induced by activation of the wnt pathway ([3]; western blot): blocked

From patent US20090074795A1, “Methods for addressing ocular diseases through interference with the wnt signaling pathway” (priority 2007, published 2009)
